Measurements taken from US20260167728A1 (published 2026).

Tests used:
human EGFR [1] = target: T1, human EGFR (human, UniProt P00533 25-645, limits assumed); assay: SPR Biacore 37 C
T1 construct: on HT-29 cells in the cytotoxicity assay; also called epidermal growth factor receptor

cynomolgus monkey EGFR = target: T2, cynomolgus monkey EGFR (cynomolgus monkey, UniProt A0A2K5WK39 25-645); assay: SPR Biacore 37 C
T2 construct: also called Cyno EGFR

human EGFR [2] = target: T1, human EGFR; assay: BLI, room temperature
Experimental: Each construct was expressed in small-scale and purified. Thermal stability was determined by Differential Scanning Fluorimetry. Melting temperature (Tₘ) determined by Differential Scanning Fluorimetry experiments described herein were performed either in duplicate or triplicate using GloMelt™ dye and QuantStudio5™. GloMelt™ dye undergoes fluorescence enhancement upon binding to hydrophobic regions of denatured proteins. Therefore, the dye can be used to detect protein unfolding or measure thermal stability. GloMelt™ dye is optimized for detection in the SYBR® Green channel of qPCR instruments. The Differential Scanning Fluorimetry experiments were performed in 96-well plates with 10 μg protein/reaction (equal to 0.5 mg/mL final protein concentration), reaction buffer, and GloMelt™ 10× dye according to manufacturer's instructions. Fluorescence of 96-well plates was read and melt curve plots were generated in the QuantStudio5™ qPCR system. Binding affinity was analyzed with bio-layer interferometry at room temperature with human EGFR as the antigen.

human CD3 = human CD3 (human, UniProt P07766 23-126); assay: SPR Biacore 37 C
cynomolgus monkey CD3 = target: T3, cynomolgus monkey CD3 (cynomolgus monkey, UniProt Q95LI5 22-117); assay: SPR Biacore 37 C
T3 construct: also called Cyno CD3
T3 sequence: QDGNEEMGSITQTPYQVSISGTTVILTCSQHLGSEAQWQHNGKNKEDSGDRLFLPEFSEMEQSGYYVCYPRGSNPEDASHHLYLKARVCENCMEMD

huCD3e-mFc [3] = target: T4, huCD3e-mFc (human, UniProt P07766 23-126); assay: Pool 3 screen
T4 construct: not shown: mFc, not described

huCD3e-mFc [4] = target: T4, huCD3e-mFc; assay: Pool 3 screen, R3

T4 sequence (P07766 23-126): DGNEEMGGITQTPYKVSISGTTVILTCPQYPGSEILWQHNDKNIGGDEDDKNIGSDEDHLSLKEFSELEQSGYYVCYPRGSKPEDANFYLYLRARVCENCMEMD
Sequence of human CD3 (P07766 23-126 limits assumed): as the sequence (P07766 23-126) above

B1: AMX-525 (1x-C) (bispecific antibody)
chain: GTSESATPESDIQMTQSPSSLSASVGDRVTITCQASQDISNYLNWYQQKPGKAPKLLIYDASNLETGVPSRFSGSGSGTDFTFTISSLQPEDIATYYCQHFDHLPLAFGQGTKVEIKSESATPESGPGTSPGATPESGPGTSESATPQVQLQESGPGLVKPSETLSLTCTVSGGSVSSGDYYWTWIRQPPGKGLEWIGHIYYSGNTNYNPSLKSRVTISVDTSKNQFSLKLSSVTAADTAVYYCARDRVTGAFDIWGQGTLVTVSSGGGGSELVVTQEPSLTVSPGGTVTLTCRSSNGAVTSSNYANWVQQKPGQAPRGLIGGTNKRAPGTPARFSGSLLEGKAALTLSGVQPEDEAVYYCALWYPNLWVFGGGTKLTVLSESATPESGPGTSPGATPESGPGTSESATPEVQLVESGGGIVQPGGSLRLSCAASGFTFSTYAMNWVRQAPGKGLEWVGRIRTKRNDYATYYADSVKGRFTISRDDSKNTLYLQMNSLKTEDTAVYYCVRHENFGNSYVSWFAHWGQGTLVTVSSGTATPESGPGEAGRSASHTPAGLTGPATPESGPGTSESATPESGPGSPAGSPTSTEEGTSESATPESGPGSEPATSGSETPGTSESATPESGPGTSTEPSEGSAPGTSTEPSEGSAPGTSTEPSEGSAPGTSTEPSEGSAPGTSTEPSEGSAPGTSTEPSEGSAPGSPAGSPTSTEEGTSTEPSEGSAPGTSESATPESGPGSEPATSGSETPGTSESATPESGPGSEPATSGSETPGTSESATPESGPGTSTEPSEGSAPGTSESATPESGPGSPAGSPTSTEEGSPAGSPTSTEEGSPAGSPTSTEEGTSESATPESGPGTSTEPSEGSAPGTSESATPESGPGSEPATSGSETPGTSESATPESGPGSEPATSGSETPGTSESATPESGPGTSTEPSEGSAPGSPAGSPTSTEEGTSESATPESGPGSEPATSGSETPGTSESATPESGPGSPAGSPTSTEEGSPAGSPTSTEEGTSTEPSEGSAPGTSESATPESGPGTSESATPESGPGTSPSATPESGPGSEPATSGSETPGSEPATSGSETPGSPAGSPTSTEEGTSTEPSEGSAPGTSTEPSEGSAPGSEPATSGSETPGTSESAGEPEA
- Kd (human EGFR [1]): 0.184 nM
- koff (human EGFR [1]): 0.00036 s⁻¹
- kon (human EGFR [1]): 2e+06 M⁻¹ s⁻¹
- Kd (cynomolgus monkey EGFR): 0.238 nM
- koff (cynomolgus monkey EGFR): 0.00051 s⁻¹
- kon (cynomolgus monkey EGFR): 2.12e+06 M⁻¹ s⁻¹

B2: AC1955 (EGFR.2/CD3.9 paTCE) (bispecific antibody)
VL: DIQMTQSPSSLSASVGDRVTITCQASQDISNYLNWYQQKPGKAPKLLIYDASNLETGVPSRFSGSGSGTDFTFTISSLQPEDIATYFCQHFDHLPLAFGGGTKVEIK
VH: QVQLQESGPGLVKPSETLSLTCTVSGGSVSSGDYYWTWIRQSPGKGLEWIGHIYYSGNTNYNPSLKSRLTISIDTSKTQFSLKLSSVTAADTAIYYCVRDRVTGAFDIWGQGTMVTVSS
scFv: ELVVTQEPSLTVSPGGTVTLTCRSSTGAVTTSNYANWVQQKPGQAPRGLIGGTNKRAPGTPARFSGSLLGGKAALTLSGVQPEDEAEYYCALWYSNLWVFGGGTKLTVLGATPPETGAETESPGETTGGSAESEPPGEGEVQLLESGGGLVQPGGSLKLSCAASGFTFNTYAMNWVRQAPGKGLEWVARIRSKYNNYATYYADSVKDRFTISRDDSKNTAYLQMNNLKTEDTAVYYCVRHGNFGNSYVSWFAYWGQGTLVTVSS
notes: One polypeptide; also called EGFR-XPAT gen1; pJB0169
- Kd (human EGFR [2]): 0.72 nM

B3: AMX-525 (1x-N) (bispecific antibody)
chain: ASSATPESGPGTSTEPSEGSAPGTSESATPESGPGSGPGTSESATPGTSESATPESGPGSEPATSGSETPGTSESATPESGPGTSTEPSEGSAPGSPAGSPTSTEEGTSESATPESGPGSEPATSGSETPGTSESATPESGPGSPAGSPTSTEEGSPAGSPTSTEEGTSTEPSEGSAPGTSESATPESGPGTSESATPESGPGTSESATPESGPGSEPATSGSETPGSEPATSGSETPGSPAGSPTSTEEGTSTEPSEGSAPGTSTEPSEGSAPGSEPATSGSETPGTSESATPEAGRSASHTPAGLTGPGTSESATPESDIQMTQSPSSLSASVGDRVTITCQASQDISNYLNWYQQKPGKAPKLLIYDASNLETGVPSRFSGSGSGTDFTFTISSLQPEDIATYYCQHFDHLPLAFGQGTKVEIKSESATPESGPGTSPGATPESGPGTSESATPQVQLQESGPGLVKPSETLSLTCTVSGGSVSSGDYYWTWIRQPPGKGLEWIGHIYYSGNTNYNPSLKSRVTISVDTSKNQFSLKLSSVTAADTAVYYCARDRVTGAFDIWGQGTLVTVSSGGGGSELVVTQEPSLTVSPGGTVTLTCRSSNGAVTSSNYANWVQQKPGQAPRGLIGGTNKRAPGTPARFSGSLLEGKAALTLSGVQPEDEAVYYCALWYPNLWVFGGGTKLTVLSESATPESGPGTSPGATPESGPGTSESATPEVQLVESGGGIVQPGGSLRLSCAASGFTFSTYAMNWVRQAPGKGLEWVGRIRTKRNDYATYYADSVKGRFTISRDDSKNTLYLQMNSLKTEDTAVYYCVRHENFGNSYVSWFAHWGQGTLVTVSSGTATPESGPG
notes: Singly masked metabolite; that the N-terminal mask is the one kept is read from the label only; not shown: remnant of cleaved RSR-3213
- Kd (cynomolgus monkey EGFR): 0.25 nM
- Kd (human CD3): 36 nM
- Kd (cynomolgus monkey CD3): 47 nM

B4: AC3811 (CD3.307) (scFv, V domains shown)
VH: EVQLVESGGGIVQPGGSLRLSCAASGFTFSTYAMNWVRQAPGKGLEWVGRIRTKRNDYATYYADSVKGRFTISRDDSKNTAYLQMNSLKTEDTAVYYCVRHENFGNSYVSWFAHWGQGTLVTVSS
VL: ELVVTQEPSLTVSPGGTVTLTCRSSNGAVTSSNYANWVQQKPGQAPRGLIGGTNKRAPGTPARFSGSLDGGKAALTLSGVQPEDEAVYYCALWYPNLWVFGGGTKLTVL
notes: Pool 3 format (remarks)
- Kd (huCD3e-mFc [3]): 6.35 nM
- Kd (huCD3e-mFc [4]): 4.8 nM

B5: AC3881 (CD3.377) (scFv, V domains shown)
VH: EVQLVESGGGIVQPGGSLRLSCAASGFTFSTYAMNWVRQAPGKGLEWVGRIRTKRNNYATTYADSVKGRFTISRDDSKNTVYLQMNSLKTEDTAVYYCVRHENFGNSYVSWFAHWGQGTLVTVSS
VL: ELVVTQEPSLTVSPGGTVTLTCRSSNGAVTSSNYANWVQQKPGQAPRGLIGGTNKRAPGTPARFSGSLLGGKAALTLSGVQPEDEAVYYCALWYPNLWVFGGGTKLTVL
notes: Pool 3 format (remarks)
- Kd (huCD3e-mFc [3]): 10.7 nM
- Kd (huCD3e-mFc [4]): 10.4 nM

B6: AC3813 (CD3.309) (scFv, V domains shown)
VH: EVQLVESGGGIVQPGGSLRLSCAASGFTFSTYAMNWVRQAPGKGLEWVGRIRTKRNDYATYYADSVKGRFTISRDDSKNTAYLQMNSLKTEDTAVYYCVRHENFGNSYVSWFAHWGQGTLVTVSS
VL: ELVVTQEPSLTVSPGGTVTLTCRSSNGAVTSSNYANWVQQKPGQAPRGLIGGTNKRAPGTPARFSGSLLEGKAALTLSGVQPEDEAVYYCALWYPNLWVFGGGTKLTVL
notes: Pool 3 format (remarks)
- Kd (huCD3e-mFc [3]): 5.82 nM
- Kd (huCD3e-mFc [4]): 5.4 nM

B7: AC3860 (CD3.356) (scFv, V domains shown)
VH: EVQLVESGGGIVQPGGSLRLSCAASGFTFSTYAMNWVRQAPGKGLEWVGRIRTKTNDYATYYADSVKGRFTISRDDSKNTAYLQMNSLKTEDTAVYYCVRHENFGNSYVSWFAHWGQGTLVTVSS
VL: ELVVTQEPSLTVSPGGTVTLTCRSSNGAVTSSNYANWVQQKPGQAPRGLIGGTNKRAPGTPARFSGSALGGKAALTLSGVQPEDEAVYYCALWYPNLWVFGGGTKLTVL
notes: Pool 3 format (remarks)
- Kd (huCD3e-mFc [3]): 29.4 nM
- Kd (huCD3e-mFc [4]): 19.7 nM

B8: AMX-525 (bispecific antibody)
chain: ASSATPESGPGTSTEPSEGSAPGTSESATPESGPGSGPGTSESATPGTSESATPESGPGSEPATSGSETPGTSESATPESGPGTSTEPSEGSAPGSPAGSPTSTEEGTSESATPESGPGSEPATSGSETPGTSESATPESGPGSPAGSPTSTEEGSPAGSPTSTEEGTSTEPSEGSAPGTSESATPESGPGTSESATPESGPGTSESATPESGPGSEPATSGSETPGSEPATSGSETPGSPAGSPTSTEEGTSTEPSEGSAPGTSTEPSEGSAPGSEPATSGSETPGTSESATPEAGRSASHTPAGLTGPGTSESATPESDIQMTQSPSSLSASVGDRVTITCQASQDISNYLNWYQQKPGKAPKLLIYDASNLETGVPSRFSGSGSGTDFTFTISSLQPEDIATYYCQHFDHLPLAFGQGTKVEIKSESATPESGPGTSPGATPESGPGTSESATPQVQLQESGPGLVKPSETLSLTCTVSGGSVSSGDYYWTWIRQPPGKGLEWIGHIYYSGNTNYNPSLKSRVTISVDTSKNQFSLKLSSVTAADTAVYYCARDRVTGAFDIWGQGTLVTVSSGGGGSELVVTQEPSLTVSPGGTVTLTCRSSNGAVTSSNYANWVQQKPGQAPRGLIGGTNKRAPGTPARFSGSLLEGKAALTLSGVQPEDEAVYYCALWYPNLWVFGGGTKLTVLSESATPESGPGTSPGATPESGPGTSESATPEVQLVESGGGIVQPGGSLRLSCAASGFTFSTYAMNWVRQAPGKGLEWVGRIRTKRNDYATYYADSVKGRFTISRDDSKNTLYLQMNSLKTEDTAVYYCVRHENFGNSYVSWFAHWGQGTLVTVSSGTATPESGPGEAGRSASHTPAGLTGPATPESGPGTSESATPESGPGSPAGSPTSTEEGTSESATPESGPGSEPATSGSETPGTSESATPESGPGTSTEPSEGSAPGTSTEPSEGSAPGTSTEPSEGSAPGTSTEPSEGSAPGTSTEPSEGSAPGTSTEPSEGSAPGSPAGSPTSTEEGTSTEPSEGSAPGTSESATPESGPGSEPATSGSETPGTSESATPESGPGSEPATSGSETPGTSESATPESGPGTSTEPSEGSAPGTSESATPESGPGSPAGSPTSTEEGSPAGSPTSTEEGSPAGSPTSTEEGTSESATPESGPGTSTEPSEGSAPGTSESATPESGPGSEPATSGSETPGTSESATPESGPGSEPATSGSETPGTSESATPESGPGTSTEPSEGSAPGSPAGSPTSTEEGTSESATPESGPGSEPATSGSETPGTSESATPESGPGSPAGSPTSTEEGSPAGSPTSTEEGTSTEPSEGSAPGTSESATPESGPGTSESATPESGPGTSPSATPESGPGSEPATSGSETPGSEPATSGSETPGSPAGSPTSTEEGTSTEPSEGSAPGTSTEPSEGSAPGSEPATSGSETPGTSESAGEPEA
notes: Fully masked paTCE; also called AC4230; EGFR.37/CD3.318 paTCE
- Kd (human EGFR [1]): 0.736 nM
- koff (human EGFR [1]): 0.00077 s⁻¹
- kon (human EGFR [1]): 1.04e+06 M⁻¹ s⁻¹
- Kd (cynomolgus monkey EGFR): 1.05 nM
- koff (cynomolgus monkey EGFR): 0.001 s⁻¹
- kon (cynomolgus monkey EGFR): 910000 M⁻¹ s⁻¹
- Kd (human CD3): 57 nM
- koff (human CD3): 0.18 s⁻¹
- kon (human CD3): 3.1e+06 M⁻¹ s⁻¹
- Kd (cynomolgus monkey CD3): 167 nM
- koff (cynomolgus monkey CD3): 0.18 s⁻¹
- kon (cynomolgus monkey CD3): 1.1e+06 M⁻¹ s⁻¹
